Measurements from the nanobody polyreactivity screen of Harvey et al. (2022).

Experiment: yeast display, Sf9 membrane polyspecificity reagent, FACS + sequencing; frameworks hold sequencing errors
Summary of the method: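 Sorting gates, low and high (top ~1%), were placed on anti-HA fluorescence to track expression and on streptavidin fluorescence to track reagent binding. A clone's polyreactivity label is taken from the gate it came out of. The reagent was 10% biotinylated, detergent-solubilized Sf9 membrane, applied for 1 hour at 4 °C to galactose-induced yeast display cells.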

Which “polyreactivity (PSR sort gate)” value does the source give for “QVQHVESGGGLLQAGGSLRLSCAASGRIFYGNAMGWYRQATGKERELVAAILWRGGTTYYADSVKGRFTISRDNAMNTVYLLMISLKPEDTSDYNCTADEPYKYYYWGQGTQVTVSS” here?
Its value is “low polyreactivity”.

For “QVQLVESGGGLVQAGGSLRLSCAASGSTFGSNAMGWYRQEPGKERELVAAITGGGTTSYADSVKGRFTISRDNAKNTVYLQMNSLKPEDTAVYYCNVLFADKSDYWGQGTQVTVSS”, which “polyreactivity (PSR sort gate)” value is on record?
Its value is “low polyreactivity”.

Which “polyreactivity (PSR sort gate)” value does the source give for “QVQHLESGGGLVQAGRSLRLSCAASGSTFITNTMGWYIKATGKERELLAAISKSGGSTYYADSVKGRFTISRDNAKNTVYLQMNSLKPEDTAVYYCAADIYVRDRGVKYDYWGQGTQVTVSS” here?
The value was “low polyreactivity”.

With “QVQLVESGGGLVQAGGSLRLSCAASGRTFQWYTMGWYRQAPGKERELVAAISWSGTSTYYADSVKGRFTISRDIAKNTVYLQMNILNPEDTAVYYCAAEVIGRYYRLDYWGQGPQVTVSS” as the sequence, how does the “polyreactivity (PSR sort gate)” value read?
The value was “low polyreactivity”.

Which “polyreactivity (PSR sort gate)” value does the source give for “QVQLVESGGGLVQAGGSLRLSCAASGGTFLGNAMGWYRQAPGKERELVADITSGGSTNYADSVKGRFTISRDNAKNTVYLQMNSLKPEDTAVDYCNAEYSTSTVWEYDYWGQGTQVTVSS” here?
The value was “low polyreactivity”.

Which “polyreactivity (PSR sort gate)” value does the source give for “QVQLVESGGGLVQAGGSLRLSCSASGRIFVIYDMGWYRQAPGKEWEFVAAISWRTGSTYYADSVKGRFTISRDNAKNTVYLQMNSLKPEDTAVYYCAASIGLVHYDYWGQGTQVTVSS” here?
Its value is “low polyreactivity”.

Which “polyreactivity (PSR sort gate)” value does the source give for “QVQLVESGGGLVQAGGSLRLSCAASGSIFSAYAMGWYRQAPGKERELVAAISDSGDSTYYADSVKGRFTISRDNAKNTVYLQMNSLKPEDTAVYYCAAESPKWGQGTQVTVSS” here?
The value was “low polyreactivity”.

With “QVQLVESGGGLVQAGGSLRLSCAASGRTLLYYAMGWYRQAPGKERELVAAISRSGGSTSYADSVKGRFTISRDNAKNTVYLQMNSLKPEDTAVYYCNAPRYYYWGQGTQVTVSS” as the sequence, how does the “polyreactivity (PSR sort gate)” value read?
Its value is “high polyreactivity”.

For “QVQLVESGGGLVQAGGSLRLICAASGFIFTYYGMGWYRQAPGKERELVAAITWSGASTYYADSVKGRFTISRDNAKNTVYLQMNSLKPEDTAVYYCNAGWDSGIVQSDETVYKYDYWGQGTQVTVSS”, which “polyreactivity (PSR sort gate)” value is on record?
The value was “low polyreactivity”.

For “QVQLVESGGGLVQAGGSLRLSCAASGFTFYSNAMGWSRQAPGKERELVATIRYRGGSTYADSVKGRFTISRDNAKNTVYLQMNSLKPEDTAVYYCAARKYRSFRQRTGDYWGQGTQVTVSS”, which “polyreactivity (PSR sort gate)” value is on record?
The value was “high polyreactivity”.

With “QVQLVESGGGLVQAGGSLRLSCAASGTTFYGYVMGWYRQAPGKQREWVAAISSSGGRTYYADSVKGRFTISRDNAKNTVYLQMNSLNPEDTAVYYCNTVQRYSTHYDYWGQGTQVTVSS” as the sequence, how does the “polyreactivity (PSR sort gate)” value read?
Its value is “high polyreactivity”.

Which “polyreactivity (PSR sort gate)” value does the source give for “QVQLVESGGGLVQAGGSLRLSCAASGITFVWNAMGWYRQAPGKVREFVAGITYRSGRTYYADSVKGRFTISRDNAKNTVYLQMNSLKPEETAGYYCATTPRYTTYNYWGQGTQVTVSS” here?
The value was “high polyreactivity”.

For “QVQLVESGGGLVQAGGSHRLSCADSGSIFWYNAMGWYRQAPGKEREFVATITWSGDSTYYADSVKGRFTISRDNAKNTVYLQMNSLKPEDTAVYYCAALLDYSVADLYSHHVSRYYYWGQGTQVTVSS”, which “polyreactivity (PSR sort gate)” value is on record?
Its value is “low polyreactivity”.

Which “polyreactivity (PSR sort gate)” value does the source give for “QVQLVESGGVLVQAGGSLRLSCAASGSTFTYNAMGWYRQAPGKEREFVAANSVGGGITYYADSVKGRFTISRDYAKNTVYLQMKSLKPEDTAVYYCAADGEYPHSEDFEYWGQGTQVTVSS” here?
The value was “low polyreactivity”.

Which “polyreactivity (PSR sort gate)” value does the source give for “QVQLVESGGGLVQAGGSLRLSCAAYGSTLLTYTMGWYRQAPGKERELVASITTSGGSTYYADSVKGRFTISRDNAKNTVYLQMNSLKPEDTAVYYWGQGTQVTVSS” here?
Its value is “low polyreactivity”.

For “QVQLVESGGGLVQAGGSLRLICAASGFIFTGYVMGWYRQEPGKERELVAAISSRGGSTYYADSVKGRFTISRDNAKNTVYLQMNSLKPEDTAVYYCAARYVYGSSYDYWGQGTQVTVSS”, which “polyreactivity (PSR sort gate)” value is on record?
The value was “high polyreactivity”.

With “QVQLQESGGVQAGGSLRLSSAATGYIARSDDMGWYRQAPGKERELVATINNGTITYYADSVKGRFTISRDNAKNTVYLQMNSLKPEDTAVHYCAVVQSDTDSLYYWGQGTQVSVSS” as the sequence, how does the “polyreactivity (PSR sort gate)” value read?
Its value is “low polyreactivity”.

Which “polyreactivity (PSR sort gate)” value does the source give for “QVQLQESGGGLVQAGGSLRLSCAASGTISQEDWMGWYRQAPGKEREFVAAIGLGSNTNYADSLKGRFSISRDPAKITVYLQMNSLKPEDTAVYYCAVSVWQYSDHVYRGQGTQVTVSS” here?
The value was “low polyreactivity”.

For “QVQLVESGGGLVQAGGSLRLSCAASGSIFGWYAMGWYRQAPGKERELVATISSGGGNTYYADAVKGRFTISRDNAKNTVYLQMNSLKPEDTAVYYCNASPGPDSRLAEFDYWGQGTQVTVSS”, which “polyreactivity (PSR sort gate)” value is on record?
Its value is “low polyreactivity”.

Which “polyreactivity (PSR sort gate)” value does the source give for “QVQLVESGGALVQAGGSLRLSCAASGLIFYYYAMGWNRPAPGKERELVAAISGGGSTYYADSVKGRFTISRDNAKNTVYLQMNSLKPEDTAVYYCAASFRYPSWLYDYWGQGTQVTVSS” here?
Its value is “low polyreactivity”.

With “QVQLVESGGGLVQAGGSLRLSCAASGSTFRYNAMGWYRQAPGKERELVAAINRGGGTDYADSVKGRFTISRDNAKNTVYLQMNSLKPEDTAVYYCAAAYLRYVSTQYHYDDWGQGTQVTVSS” as the sequence, how does the “polyreactivity (PSR sort gate)” value read?
Its value is “low polyreactivity”.

Which “polyreactivity (PSR sort gate)” value does the source give for “QVQLVESGGGLVQAGGSLRLSCAASGSTFTDYTMGWYRQAPGKERELVARIRSRGARTYYADSVKGRFTISRDNAKNTVYLQMNSLKPEDTAVYYCAAAGVRSYAGDYWGQGTQVTVSS” here?
Its value is “high polyreactivity”.

With “QVQLVESGGGLVQAGGSLRLSCAASGYTFQPYTMGWYRQAPGKERELVAAISKSGTRTYYADSVKGRFTISRDNEKNTVYLQMNSLKPEDTAVYYCAARYTGFLFDYWGQGTQVTVSS” as the sequence, how does the “polyreactivity (PSR sort gate)” value read?
Its value is “high polyreactivity”.

For “QVQLVETGGGLVQAGGSLRISCAPSGRTFRNNDMAWYRQAPGTEREFVAVISNTGGSTYYADSVKGRFTNSRDNAKNTVYLQMNSLKPEDTAVYYCAVRPRYSQYYYWGQGTQVTVSS”, which “polyreactivity (PSR sort gate)” value is on record?
The value was “high polyreactivity”.

Which “polyreactivity (PSR sort gate)” value does the source give for “QVQLVESGGGLDHARGSLRLICPASGRTFAPYAMGWYRQAPGKERELVARITWSGTDTYYADSVKGRFTISRDNAKNTVYLQMNCLKPDDTAVYYCAADARYSRRYYYWGQGTQVTVSS” here?
Its value is “low polyreactivity”.

With “QVQLVESGGGLVQAGGSLRLSCAASGSTFRSYVMGWYRQAPGKERELVARITFNGGGTSYADSVKGRFTISRDTAKNTVYLQMNSLKPEDTAVYYCAARGYGWPKLFNYWGQGTQVTVSS” as the sequence, how does the “polyreactivity (PSR sort gate)” value read?
Its value is “high polyreactivity”.

For “QVQLVESGGGLVQAGGSLRLSCAASGFIFLKYRMGWYRQAPGKEREFVAAISRRGGSTNYADSVKGRFTISRDNEKNTVYLQMNSLKPEDTAVYYCGTDAFAGPVSYYYWGQGTQVSVSS”, which “polyreactivity (PSR sort gate)” value is on record?
The value was “high polyreactivity”.

With “QVQLVESGGGLVQAGGSLRLSCAASGRTLKYNAMGWYRQAPGKERELVAAISYSGSSTYYADSVNGRFTISRDKAKHTVYLQMNSLKPEDTEVYYCNTARPTAAYDYWGQGTQVTVSS” as the sequence, how does the “polyreactivity (PSR sort gate)” value read?
Its value is “low polyreactivity”.

For “QVQLVESGGGLVQAGGSLRLSCADSGRTFYHDTMGWYRQAPGKERELVARITRRVGSTYYADSVKGRFTISRDNAKNTVYLQMNSLKPEDTAVYYCNAKSGLYRYLLDYWGQGTQVTVSS”, which “polyreactivity (PSR sort gate)” value is on record?
Its value is “high polyreactivity”.

Which “polyreactivity (PSR sort gate)” value does the source give for “QVQLVESGGGLVQAGGSLRLSCAASGSSFYYYTMGWYRQAPGKEMELVAAITYSGGSTRYADSVKGRFTISRDNAKNTVYLQMNSLKPEDTAVYYCAAELTEWTNGFDYWGQGTQVTVSS” here?
Its value is “high polyreactivity”.

With “QVQLVESGGGLVQAGGSLRLSCAASGFTFGFYAMGWSRQATGKERELVARISYSGGSTYYADSVKGRFTISRDNAKNTVYLQMNSLKPEDTAVYYCNRGYRRLQEDYWGQGTQVTVSS” as the sequence, how does the “polyreactivity (PSR sort gate)” value read?
The value was “high polyreactivity”.

For “QVQLVESAGGLVQAGGSLRLSCAASGSSLGYYAMGWYRQAPGKERELVADIDNGTSTYYADSVKGRFTISRDNAKNTVYLQMNSLKQEDTAVYYCAADYYSRYLQSYYWGQGTQVTVSS”, which “polyreactivity (PSR sort gate)” value is on record?
Its value is “low polyreactivity”.

With “QVQLVESGGGLVQAGGSLRLSCAASGSTFYQSVMGWYRQAPGKERELVADITNGGSTYYADSVKGRFTISRDNAKNTVYLQMNSLKPEDTAVYYCAADGGYYWYTYWYGGLYYWGQGTQVTVSS” as the sequence, how does the “polyreactivity (PSR sort gate)” value read?
The value was “high polyreactivity”.

Which “polyreactivity (PSR sort gate)” value does the source give for “QVQLVESGGGLVQAGGSLRLSCAASGRTFTGYAMGWYRQAPGKERELVAAISSRVGSTYYADSVKGRFTISRDNAKNTVYLQMNSLKPEDTAVYYCAKDSQSYTREAYYYWGQGTQVTVSS” here?
The value was “low polyreactivity”.

With “QVQLVEAGGGLVQAGGSLRLSCAASGIIFGFYAMGWYRQAPGKERELVAAITNDGGNTNYADSVKGRFTISRDNAKNTVYLQMNSLKPEDTAVYYCNADRTQDRTPYTYATFDYWGQGTQVTVSS” as the sequence, how does the “polyreactivity (PSR sort gate)” value read?
Its value is “low polyreactivity”.

Which “polyreactivity (PSR sort gate)” value does the source give for “QVQLVESGGGLVQAGGSLRLSCAASGSTFDSNAMGWYRQAPGKERELVAAIRFSGGSTNYADSVKGRFTISRDKAKNTVYLQINSLKPEDTAVYYCAARYPNLRSRWYYYWGQGPQVTVSS” here?
Its value is “high polyreactivity”.

Which “polyreactivity (PSR sort gate)” value does the source give for “QVHLVESGGGIVQAGGSHRLSCAATGRIFAPYAMGWYRQAPGKERELVAAISWSDVSTDYADSVKGRFTISRDNAKNTVYLQMNSLKPEDTAVSYCAAAYPGYRGWYYYWGQGTQVTVSS” here?
The value was “high polyreactivity”.

For “QVQHVESGGGLVQAGGSLRLSCAASGLIFTTYAMGWYRQAPGKERELVADINSDGSTYYADSVKGRFTISRDNAKNTVYLQMNSLKPEDTAVYYCAASSYYTITYKLIYWRNYDYWGHGTQVTVSS”, which “polyreactivity (PSR sort gate)” value is on record?
The value was “low polyreactivity”.

For “QVQLEESGRGLVQAGGSLRLSCAASGFIFYRNTMGWYRQAPGKERELVAAISVSGGSTNYADSVKGRFTISRDNAKNTVYLQINSLKPEVTAVYYCAARVRESLVYGGWDDYWGQGTQVTVSS”, which “polyreactivity (PSR sort gate)” value is on record?
Its value is “high polyreactivity”.

For “QVQLVESGVGFVQAGGSLRLSCAASGRIFGYYMGWYIQAPGKERELVAGISKRGTRTRYADSVKGRFTISRDNAKNTVFLQMNSLKPEDTAVYYCNADYYVSNMDYWGQGTQVTVSS”, which “polyreactivity (PSR sort gate)” value is on record?
Its value is “high polyreactivity”.

Which “polyreactivity (PSR sort gate)” value does the source give for “QVQLVESGGGLVQAGGSLRLSCAASGSTFARNVMGWYRQAPGKERELVAAISWRGGRTYYADSVKGRFTISRDNAKNTVYLQMNSLKPEDTAVYYCAAGRSFRGSYWYEYWGQGTKVTVSS” here?
Its value is “high polyreactivity”.
